From EP4624485A1, “PEPTIDE THAT TARGETS MACROPHAGES AND USES THEREOF” (Consejo Superior De Investigaciones Científicas, priority 2024, dated 2025)
Values belong to the molecule of their own block, whether it stands above or below them. Bridge positions count the residues as written; N and C are the ends. Ends that are not written are not given here. Peptide text beside a SMILES is read from it. * marks the point of attachment. 5FAM = O=C1OC2(c3ccc(O)cc3Oc3cc(O)ccc32)c2ccc(C(=O)*)cc21; Vert = not defined here; Ahx = NCCCCCC(=O)O

Tests used:
[1] = mouse, in vivo
[2] = molecular target: T1, human recombinant CD206 (Homo sapiens, UniProt P22897); test: Quartz Crystal Microbalance (QCM) binding to PAH/CD206 multilayer; conditions: peptides 10µM in PBS, curve fitting, read-out: constant of association
T1 construct: purchased R&D systems 2534-MR-050/CF
T1 sequence (P22897 19-1456): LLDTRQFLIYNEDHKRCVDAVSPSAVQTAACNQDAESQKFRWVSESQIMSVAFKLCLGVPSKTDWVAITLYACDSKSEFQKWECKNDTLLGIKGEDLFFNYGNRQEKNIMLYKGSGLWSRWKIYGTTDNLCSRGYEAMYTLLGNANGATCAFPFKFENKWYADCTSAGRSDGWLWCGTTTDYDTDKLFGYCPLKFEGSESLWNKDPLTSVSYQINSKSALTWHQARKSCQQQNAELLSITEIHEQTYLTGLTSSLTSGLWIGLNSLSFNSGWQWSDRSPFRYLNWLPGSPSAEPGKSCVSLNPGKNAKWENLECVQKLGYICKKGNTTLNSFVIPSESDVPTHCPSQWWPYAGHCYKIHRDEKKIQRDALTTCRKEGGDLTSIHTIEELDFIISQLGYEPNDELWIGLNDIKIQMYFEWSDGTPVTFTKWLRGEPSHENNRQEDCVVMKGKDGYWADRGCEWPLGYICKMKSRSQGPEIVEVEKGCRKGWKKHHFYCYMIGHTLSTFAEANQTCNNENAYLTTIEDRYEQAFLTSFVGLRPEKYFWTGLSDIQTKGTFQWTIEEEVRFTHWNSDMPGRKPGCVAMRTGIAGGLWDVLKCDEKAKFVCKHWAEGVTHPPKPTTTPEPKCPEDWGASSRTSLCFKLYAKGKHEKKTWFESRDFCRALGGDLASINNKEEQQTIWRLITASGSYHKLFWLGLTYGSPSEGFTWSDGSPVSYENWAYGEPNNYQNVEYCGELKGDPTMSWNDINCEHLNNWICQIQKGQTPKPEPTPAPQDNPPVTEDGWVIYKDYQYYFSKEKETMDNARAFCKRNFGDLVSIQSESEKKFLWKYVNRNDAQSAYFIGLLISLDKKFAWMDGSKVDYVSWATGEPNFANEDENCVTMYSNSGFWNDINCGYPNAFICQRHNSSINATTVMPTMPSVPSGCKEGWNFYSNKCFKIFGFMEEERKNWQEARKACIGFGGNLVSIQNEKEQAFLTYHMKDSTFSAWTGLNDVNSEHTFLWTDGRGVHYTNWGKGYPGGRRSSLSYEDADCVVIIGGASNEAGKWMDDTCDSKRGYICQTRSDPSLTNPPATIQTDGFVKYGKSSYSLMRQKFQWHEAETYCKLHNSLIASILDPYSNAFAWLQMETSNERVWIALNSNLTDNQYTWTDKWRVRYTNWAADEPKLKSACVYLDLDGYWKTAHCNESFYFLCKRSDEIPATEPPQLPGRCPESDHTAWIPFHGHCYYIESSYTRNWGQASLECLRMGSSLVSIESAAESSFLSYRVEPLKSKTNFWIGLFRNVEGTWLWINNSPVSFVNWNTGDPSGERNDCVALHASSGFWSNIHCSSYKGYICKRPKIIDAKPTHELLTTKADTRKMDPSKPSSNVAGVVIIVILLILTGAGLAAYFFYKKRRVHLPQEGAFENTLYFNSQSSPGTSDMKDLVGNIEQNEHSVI
Description: To confirm the capacity of MACTIDE to bind to CD206, we evaluated binding to recombinant CD206 included in a viscoelastic film, using Quartz Crystal Microbalance (QCM). QCM is a powerful technique used to study label-free ligand-receptor interactions in solution (Baltus, R. E. et al., Langmuir 2007, 23 (7), 3880-3885), wherein peptide binding and dissociation is sensed through a mass increase or decrease on a resonating crystal surface functionalized with the receptor. Here, we evaluated the mass changes of MACTIDE when binding and dissociating in solution to CD206 immobilized on a viscoelastic film, deposited on a gold-modified quartz crystal resonating at 5 MHz. […]
The Quartz Crystal Microbalance (QCM) used was QCM200 system from Stanford Research Systems (Sunnyvale, CA, USA). […] Then, a baseline with 500µL of mQ at pH 8 was recorded, the measurement was paused and then 5µL of a 1mg/mL solution in PBS were added (human recombinant CD206, Cat # 2534-MR-050/CF from R&D systems, reconstituted with 50µL of mQ); final concentration of CD206 in the cell: 0.01 mg/mL. […] For peptides, 500µL of PBS were placed in the cell and the baseline was recorded, the measurement was then paused and 50µL of a 100µM solution of peptides in PBS were gently deposited on the cell and the measurement was resumed. […]

[3] = system: (LPS + IFNy)-stimulated macrophages; test: In vitro photodynamic therapy, MTT cell viability, (LPS + IFNγ)-stimulated macrophages; type: cell-based, human; conditions: with and without irradiation, 30µM
[4] = system: IL4-stimulated macrophages; test: In vitro photodynamic therapy, MTT cell viability, IL4-stimulated macrophages; type: cell-based, human; conditions: with and without irradiation, 30µM
[5] = molecular target: T2, human recombinant CD206 (Cat # 2534-MR-050/CF from R&D systems) (human, UniProt P22897 19-1383, limits assumed); test: QCM (summary of example 3, Fig. 3)
T2 construct: Bought recombinant protein; also called Macrophage Mannose Receptor 1; PAH/CD206 multilayer
T2 sequence: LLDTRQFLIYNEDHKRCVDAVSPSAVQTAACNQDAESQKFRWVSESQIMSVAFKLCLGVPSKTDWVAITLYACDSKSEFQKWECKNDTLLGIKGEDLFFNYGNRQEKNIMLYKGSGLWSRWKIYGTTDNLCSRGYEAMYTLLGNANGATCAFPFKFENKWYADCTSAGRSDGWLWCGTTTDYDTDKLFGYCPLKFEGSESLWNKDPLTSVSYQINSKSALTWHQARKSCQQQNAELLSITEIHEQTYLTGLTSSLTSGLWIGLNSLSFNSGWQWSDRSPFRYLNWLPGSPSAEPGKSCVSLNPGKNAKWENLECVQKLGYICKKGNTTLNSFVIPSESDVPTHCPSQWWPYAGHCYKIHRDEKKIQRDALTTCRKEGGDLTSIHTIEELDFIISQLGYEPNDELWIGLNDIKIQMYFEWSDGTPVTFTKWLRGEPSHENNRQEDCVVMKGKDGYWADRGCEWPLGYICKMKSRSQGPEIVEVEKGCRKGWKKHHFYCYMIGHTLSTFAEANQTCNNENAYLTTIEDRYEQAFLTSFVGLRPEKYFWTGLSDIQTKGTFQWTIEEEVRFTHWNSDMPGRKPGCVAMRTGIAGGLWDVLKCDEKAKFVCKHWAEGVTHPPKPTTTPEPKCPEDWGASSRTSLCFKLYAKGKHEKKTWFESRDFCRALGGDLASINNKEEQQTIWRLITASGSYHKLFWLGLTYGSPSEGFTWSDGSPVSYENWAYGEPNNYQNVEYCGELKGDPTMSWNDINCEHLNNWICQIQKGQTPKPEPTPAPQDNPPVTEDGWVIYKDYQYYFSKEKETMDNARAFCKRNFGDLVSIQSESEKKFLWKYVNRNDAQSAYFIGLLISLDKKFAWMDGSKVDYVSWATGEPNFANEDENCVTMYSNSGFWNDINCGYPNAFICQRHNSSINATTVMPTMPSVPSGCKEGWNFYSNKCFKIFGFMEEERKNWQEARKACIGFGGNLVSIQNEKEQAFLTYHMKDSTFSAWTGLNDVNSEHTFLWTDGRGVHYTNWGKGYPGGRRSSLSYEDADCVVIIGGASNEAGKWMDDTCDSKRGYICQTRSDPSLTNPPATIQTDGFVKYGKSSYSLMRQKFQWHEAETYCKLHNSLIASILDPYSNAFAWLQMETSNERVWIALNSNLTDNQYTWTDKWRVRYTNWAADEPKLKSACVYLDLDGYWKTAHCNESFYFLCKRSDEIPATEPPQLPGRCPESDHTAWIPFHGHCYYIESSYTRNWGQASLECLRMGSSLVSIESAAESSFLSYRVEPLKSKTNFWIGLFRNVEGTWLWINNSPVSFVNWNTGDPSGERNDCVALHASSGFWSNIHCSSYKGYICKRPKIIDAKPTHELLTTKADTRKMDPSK

[6] = molecular target: T3, Bovine Serum Albumin (BSA, Cat # A7906, Sigma-Aldrich) (bovine, UniProt P02769 25-607); test: QCM, peptide in PBS on PAH/BSA control multilayer
T3 construct: Control protein deposited on PAH as the control multilayer; also called PAH/BSA control multilayer
T3 sequence (P02769 25-607 limits assumed): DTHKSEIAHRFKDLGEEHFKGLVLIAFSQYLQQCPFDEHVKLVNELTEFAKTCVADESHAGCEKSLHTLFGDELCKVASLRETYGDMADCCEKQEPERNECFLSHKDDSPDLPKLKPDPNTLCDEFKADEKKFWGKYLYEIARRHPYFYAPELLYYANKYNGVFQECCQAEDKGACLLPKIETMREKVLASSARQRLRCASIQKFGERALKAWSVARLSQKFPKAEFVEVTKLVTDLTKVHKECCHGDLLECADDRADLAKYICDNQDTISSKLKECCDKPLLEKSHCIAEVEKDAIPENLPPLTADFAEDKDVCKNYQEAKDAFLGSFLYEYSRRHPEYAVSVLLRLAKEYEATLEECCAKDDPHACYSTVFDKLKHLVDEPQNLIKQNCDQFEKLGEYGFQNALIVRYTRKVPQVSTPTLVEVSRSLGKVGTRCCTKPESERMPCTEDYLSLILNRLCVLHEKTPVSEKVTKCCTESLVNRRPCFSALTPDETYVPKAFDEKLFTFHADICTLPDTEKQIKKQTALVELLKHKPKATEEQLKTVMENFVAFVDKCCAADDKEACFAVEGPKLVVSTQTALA

[7] = molecular target: T2, human recombinant CD206 (Cat # …); test: QCM, PAH/CD206 multilayer, curves fitted with TraceDrawer

Molecule: CC[C@H](C)[C@@H]1NC(=O)[C@@H]2CCCN2C(=O)[C@@H]2CCCN2C(=O)[C@H]([C@@H](C)CC)NC(=O)[C@H](CO)NC(=O)[C@H](CCCCN)NC(=O)[C@H]([C@@H](C)O)NC(=O)[C@@H](NC(=O)CNC(=O)CCCCCNC(=O)c2ccc3c(c2)C(=O)OC32c3ccc(O)cc3Oc3cc(O)ccc32)CSSC[C@@H](C(=O)N[C@@H](CO)C(=O)N2CCC[C@H]2C(=O)NCC(=O)N[C@@H](C)C(=O)N[C@@H](CCCCN)C(=O)O)NC1=O [FAM-MACTIDE] ({5FAM-Ahx}-GCTKSIPPICSPGAK-OH; disulfide 2-10)
- blood half-life [1]: the same as those obtained previously for FAM-mUNO

Molecule: Vert-CtrlPep: control conjugate, Vert-Ahx- on AKPCGS (SEQ ID NO: 8) ({Vert-Ahx}-AKPCGS; reading uncertain)
- toxicity [3]: no toxicity
- toxicity [4]: no toxicity

B1: MACTIDE (peptide)
peptide: GCTKSIPPICSPGAK
modifications: disulfide 2-10
notes: Monocyclic through the C2-C10 disulfide; also called the peptide of the invention
- fold higher affinity (against mUNO) [5]: 15 fold
- binding result [6]: no binding (tested: 10µM)
- Kd [7]: 0.38 µM
- fold slower dissociation constant against mUNO [7]: 30 fold
- koff [7]: 0.00025 s⁻¹
- kon [7]: 650 M⁻¹ s⁻¹

More lines, now with the values ahead:

- kon at 10 µM [2]: 650 M⁻¹ s⁻¹
Molecule: CC[C@H](C)[C@@H]1NC(=O)[C@@H]2CCCN2C(=O)[C@@H]2CCCN2C(=O)[C@H]([C@@H](C)CC)NC(=O)[C@H](CO)NC(=O)[C@H](CCCCN)NC(=O)[C@H]([C@@H](C)O)NC(=O)[C@@H](NC(=O)CN)CSSC[C@@H](C(=O)N[C@@H](CO)C(=O)N2CCC[C@H]2C(=O)NCC(=O)N[C@@H](C)C(=O)N[C@@H](CCCCN)C(=O)O)NC1=O [MACTIDE, GCTKSIPPICSPGAK] (H-GCTKSIPPICSPGAK-OH; disulfide 2-10)

- kon at 10 µM [2]: 1400 M⁻¹ s⁻¹
Molecule: CSPGAK [mUNO, CSPGAK]

- binding result [6]: no binding (tested: 10µM)
- Kd [7]: 6 µM
- koff [7]: 0.0087 s⁻¹
- kon [7]: 1400 M⁻¹ s⁻¹
Molecule: CSPGAK (also called mUNO peptide) [mUNO]
